Values of other authors as cited in patent US20250304696A1, “METHODS AND COMPOSITIONS FOR TREATING BARTH SYNDROME” (PROVENTION BIO, INC., priority 2021, published 2025).

B1: inebilizumab (antibody, chains of the INN, looked up, V domains shown)
VH: EVQLVESGGGLVQPGGSLRLSCAASGFTFSSSWMNWVRQAPGKGLEWVGRIYPGDGDTNYNVKFKGRFTISRDDSKNSLYLQMNSLKTEDTAVYYCARSGFITTVRDFDYWGQGTLVTVSS
VL: EIVLTQSPDFQSVTPKEKVTITCRASESVDTFGISFMNWFQQKPDQSPKLLIHEASNQGSGVPSRFSGSGSGTDFTLTINSLEAEDAATYYCQQSKEVPFTFGGGTKVEIK
notes: cell depleting agent

Tested on: depleted cell types (B cells)
Conditions: patients receiving depleting agents

Time to recover the depleted cell types, up to a year:
ocrelizumab
rituximab
B1
